Results taken from paper PMC9482650, “Quantitative fragmentomics allow affinity mapping of interactomes” (Nature Communications, 2022).

Tests used:
Assay in all cases: holdup assay
Set-up in all cases: key: below the threshold = too weak to quantify, mostly under pKd 3.1 to 4
Conditions in all cases: plain residues with an end cap or a label only (N-terminal biotin on a linker: ttds)
APBA1_1, Q02410 = target: T1, APBA1_1, Q02410
T1 sequence (Q02410 651-752, limits assumed, looked up): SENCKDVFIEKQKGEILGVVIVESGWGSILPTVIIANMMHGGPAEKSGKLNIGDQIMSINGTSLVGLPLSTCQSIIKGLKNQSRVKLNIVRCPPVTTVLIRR

DLG3_2, Q92796 = target: T2, DLG3_2, Q92796
T2 sequence (Q92796 221-321, limits assumed, looked up): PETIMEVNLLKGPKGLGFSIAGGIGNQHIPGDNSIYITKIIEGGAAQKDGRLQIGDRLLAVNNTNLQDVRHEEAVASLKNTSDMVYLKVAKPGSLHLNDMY

LIN7A, O14910 = target: T3, LIN7A, O14910
T3 sequence (O14910 103-200, limits assumed, looked up): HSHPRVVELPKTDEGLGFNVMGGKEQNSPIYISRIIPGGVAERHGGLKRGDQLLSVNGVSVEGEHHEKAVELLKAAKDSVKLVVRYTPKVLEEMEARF

DLG4_1, P78352 = target: DLG4_1, P78352
DLG4_1, P78352, sequence (P78352 62-152): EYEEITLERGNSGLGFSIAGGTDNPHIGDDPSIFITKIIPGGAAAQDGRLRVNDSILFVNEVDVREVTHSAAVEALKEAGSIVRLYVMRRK

MAGI2_3, Q86UL8 = target: MAGI2_3, Q86UL8
MAGI2_3, Q86UL8, sequence (Q86UL8 600-682): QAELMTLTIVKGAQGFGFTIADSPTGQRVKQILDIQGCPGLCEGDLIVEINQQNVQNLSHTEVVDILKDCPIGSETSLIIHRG

FRMPD1, Q5SYB0 = target: T4, FRMPD1, Q5SYB0
T4 sequence (Q5SYB0 52-145, limits assumed, looked up): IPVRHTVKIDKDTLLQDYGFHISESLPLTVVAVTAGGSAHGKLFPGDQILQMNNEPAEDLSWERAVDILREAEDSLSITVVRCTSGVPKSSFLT

MPDZ_10, O75970 = target: T5, MPDZ_10, O75970
T5 sequence (O75970 1624-1722, limits assumed, looked up): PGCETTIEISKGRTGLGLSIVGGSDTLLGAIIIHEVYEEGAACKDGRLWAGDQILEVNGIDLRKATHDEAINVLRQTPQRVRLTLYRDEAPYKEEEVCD

MPDZ_5, O75970 = target: T6, MPDZ_5, O75970
T6 sequence (O75970 695-796, limits assumed, looked up): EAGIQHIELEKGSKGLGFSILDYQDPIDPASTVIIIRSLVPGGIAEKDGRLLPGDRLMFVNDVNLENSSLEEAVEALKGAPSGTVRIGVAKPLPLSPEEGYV

PICK1, Q9NRD5 = target: PICK1, Q9NRD5
PICK1, Q9NRD5, sequence (Q9NRD5 17-115): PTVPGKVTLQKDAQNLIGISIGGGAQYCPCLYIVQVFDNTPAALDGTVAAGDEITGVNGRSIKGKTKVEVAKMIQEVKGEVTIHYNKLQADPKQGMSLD

SCRIB_2, Q14160 = target: SCRIB_2, Q14160
SCRIB_2, Q14160, sequence (Q14160 857-960): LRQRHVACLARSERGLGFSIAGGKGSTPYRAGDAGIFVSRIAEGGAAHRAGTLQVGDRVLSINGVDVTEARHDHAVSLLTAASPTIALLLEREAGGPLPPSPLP

NHERF4_1, Q86UT5-2 = target: NHERF4_1, Q86UT5-2
NHERF4_1, Q86UT5-2, sequence (Q86UT5 other isoform, or with tags, fused parts or gaps): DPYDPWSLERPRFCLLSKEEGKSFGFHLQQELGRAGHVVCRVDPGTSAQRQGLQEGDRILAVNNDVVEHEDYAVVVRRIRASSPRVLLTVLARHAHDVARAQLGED

DLG1_1, Q12959 = target: DLG1_1, Q12959
SNTG1, Q9NSN8 = target: T7, SNTG1, Q9NSN8
T7 sequence (Q9NSN8 52-150, limits assumed, looked up): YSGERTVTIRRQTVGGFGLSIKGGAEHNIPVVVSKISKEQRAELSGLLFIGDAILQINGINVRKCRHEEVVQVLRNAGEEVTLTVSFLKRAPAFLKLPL

NHERF4_4, Q86UT5 = target: NHERF4_4, Q86UT5
NHERF4_4, Q86UT5, sequence (Q86UT5 464-550): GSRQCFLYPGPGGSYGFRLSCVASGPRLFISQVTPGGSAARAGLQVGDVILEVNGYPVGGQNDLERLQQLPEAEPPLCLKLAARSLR

FRMPD2_1, Q68DX3 = target: FRMPD2_1, Q68DX3
FRMPD2_1, Q68DX3, sequence (Q68DX3 770-861): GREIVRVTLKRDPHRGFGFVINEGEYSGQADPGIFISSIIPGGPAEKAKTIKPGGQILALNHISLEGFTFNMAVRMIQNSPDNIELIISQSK

GRID2IP_1, A4D2P6 = target: GRID2IP_1, A4D2P6
GRID2IP_1, A4D2P6, sequence (A4D2P6 1-87): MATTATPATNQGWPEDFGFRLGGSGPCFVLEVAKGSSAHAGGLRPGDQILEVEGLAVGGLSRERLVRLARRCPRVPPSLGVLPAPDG

MAGI2_5, Q86UL8 = target: MAGI2_5, Q86UL8
MAGI2_5, Q86UL8, sequence (Q86UL8 915-1017): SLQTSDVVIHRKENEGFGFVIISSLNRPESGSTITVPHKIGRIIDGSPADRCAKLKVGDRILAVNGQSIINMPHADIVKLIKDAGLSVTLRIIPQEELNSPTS

GRIP2_6, Q9C0E4 = target: GRIP2_6, Q9C0E4
GRIP2_6, Q9C0E4, sequence (Q9C0E4 648-740): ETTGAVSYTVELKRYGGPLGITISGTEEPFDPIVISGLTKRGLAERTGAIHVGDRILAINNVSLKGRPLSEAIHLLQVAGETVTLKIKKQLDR

HTRA2, O43464 = target: HTRA2, O43464
HTRA2, O43464, sequence (O43464 355-458): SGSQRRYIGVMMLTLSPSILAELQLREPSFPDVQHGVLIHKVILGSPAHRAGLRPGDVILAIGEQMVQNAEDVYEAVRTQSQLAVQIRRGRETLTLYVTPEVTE

PDLIM1, O00151 = target: PDLIM1, O00151
PDLIM1, O00151, sequence (O00151 1-87): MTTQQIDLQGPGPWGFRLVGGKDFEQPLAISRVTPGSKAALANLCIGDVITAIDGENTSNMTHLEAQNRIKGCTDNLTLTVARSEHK

PARD3B_1, Q8TEW8 = target: T8, PARD3B_1, Q8TEW8
T8 sequence (Q8TEW8 196-299, limits assumed, looked up): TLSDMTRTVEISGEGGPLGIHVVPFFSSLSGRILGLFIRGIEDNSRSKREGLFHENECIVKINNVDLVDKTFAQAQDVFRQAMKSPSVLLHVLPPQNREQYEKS

NHERF3_3, Q5T2W1 = target: T9, NHERF3_3, Q5T2W1
T9 sequence (Q5T2W1 238-333, limits assumed, looked up): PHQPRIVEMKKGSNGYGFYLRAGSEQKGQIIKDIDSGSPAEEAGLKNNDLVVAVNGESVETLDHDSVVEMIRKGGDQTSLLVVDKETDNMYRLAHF

GRIP1_3, Q9Y3R0 = target: T10, GRIP1_3, Q9Y3R0
T10 sequence (Q9Y3R0 247-346, limits assumed, looked up): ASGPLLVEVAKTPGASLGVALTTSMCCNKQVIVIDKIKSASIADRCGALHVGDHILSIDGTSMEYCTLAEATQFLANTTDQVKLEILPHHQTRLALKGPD

LDB3, O75112 = target: LDB3, O75112
LDB3, O75112, sequence (O75112 1-94): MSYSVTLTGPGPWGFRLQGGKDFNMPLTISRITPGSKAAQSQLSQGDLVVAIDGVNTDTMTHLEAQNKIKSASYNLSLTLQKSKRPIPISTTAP

LNX1_2, Q8TBB1 = target: LNX1_2, Q8TBB1
LNX1_2, Q8TBB1, sequence (Q8TBB1 371-470): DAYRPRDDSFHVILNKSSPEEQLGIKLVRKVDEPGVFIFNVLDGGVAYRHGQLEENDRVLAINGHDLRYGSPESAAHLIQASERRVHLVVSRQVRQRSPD

FRMPD3, Q5JV73 = target: FRMPD3, Q5JV73
FRMPD3, Q5JV73, sequence (Q5JV73 12-100): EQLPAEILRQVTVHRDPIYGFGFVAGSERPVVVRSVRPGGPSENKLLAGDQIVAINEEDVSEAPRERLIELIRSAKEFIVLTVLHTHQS

GRIP1_5, Q9Y3R0 = target: T11, GRIP1_5, Q9Y3R0
T11 sequence (Q9Y3R0 568-668, limits assumed, looked up): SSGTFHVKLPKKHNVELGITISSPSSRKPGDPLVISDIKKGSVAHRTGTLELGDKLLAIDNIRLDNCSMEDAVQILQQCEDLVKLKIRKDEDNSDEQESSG

STLTIFETAL [ABCC4, O15439]
pKd (APBA1_1, Q02410): below the threshold
pKd (DLG3_2, Q92796): 4.35
pKd (LIN7A, O14910): 3.66
pKd (DLG4_1, P78352): 4.23
pKd (MAGI2_3, Q86UL8): below the threshold
pKd (FRMPD1, Q5SYB0): below the threshold
pKd (MPDZ_10, O75970): below the threshold
pKd (MPDZ_5, O75970): below the threshold
pKd (PICK1, Q9NRD5): below the threshold
pKd (SCRIB_2, Q14160): 4.92
pKd (NHERF4_1, Q86UT5-2): 4.61
pKd (DLG1_1, Q12959): 4.46
pKd (SNTG1, Q9NSN8): 4.89
pKd (NHERF4_4, Q86UT5): 4.24
pKd (FRMPD2_1, Q68DX3): 3.84
pKd (GRID2IP_1, A4D2P6): 3.48
pKd (MAGI2_5, Q86UL8): 4.69
pKd (GRIP2_6, Q9C0E4): below the threshold
pKd (HTRA2, O43464): 3.68
pKd (PDLIM1, O00151): 3.85
pKd (PARD3B_1, Q8TEW8): 3.94
pKd (NHERF3_3, Q5T2W1): 3.61
pKd (GRIP1_3, Q9Y3R0): below the threshold
pKd (LDB3, O75112): below the threshold
pKd (LNX1_2, Q8TBB1): below the threshold
pKd (FRMPD3, Q5JV73): 3.6
pKd (GRIP1_5, Q9Y3R0): below the threshold
